Results reported in PMC2923189, “An Oligopeptide Transporter of Mycobacterium tuberculosis Regulates Cytokine Release and Apoptosis of Infected Macrophages” (PLoS ONE, 2010).

Legend:
Experiment in all cases: radioligand binding
[1] = target: OppAMTB mutant F496D (Mycobacterium tuberculosis) (UniProt P9WGU5)
[2] = target: OppAMTB mutant N230G (Mycobacterium tuberculosis) (UniProt P9WGU5)
[3] = target: OppAMTB mutant G109S (Mycobacterium tuberculosis) (UniProt P9WGU5)
[4] = target: OppAMTB mutant D494N (Mycobacterium tuberculosis) (UniProt P9WGU5)
[5] = target: OppAMTB mutant N110A (Mycobacterium tuberculosis) (UniProt P9WGU5)

Measured: loss of binding activity against wild type

bradykinin (nonapeptide)
> 50%: [1] | [2] | [3] | [4] | [5]

glutathione (tripeptide)
> 50%: [1] | [2] | [3] | [4] | [5]
